Results: patent US20230272099A1 (Chugai, published 2023)
Substitutions are numbered along the chain they refer to.

T1: human FcgRIIa type H extracellular domain (human, UniProt P12318 34-217)
T1 construct: extracellular domain; also called hFcgRIIaH
T1 sequence (looked up): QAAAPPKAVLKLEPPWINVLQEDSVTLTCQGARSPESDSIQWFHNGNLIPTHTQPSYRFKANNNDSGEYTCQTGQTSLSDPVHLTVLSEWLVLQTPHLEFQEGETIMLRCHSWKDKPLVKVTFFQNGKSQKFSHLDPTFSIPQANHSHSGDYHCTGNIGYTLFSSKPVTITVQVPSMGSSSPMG

T2: human FcgRIIa type R extracellular domain (human, UniProt P12318 34-217)
T2 construct: extracellular domain; also called hFcgRIIaR
T2 sequence (looked up): T1 sequence (looked up) with H134R

T3: human FcgRIIb extracellular domain (human, UniProt P31994 43-217)
T3 construct: extracellular domain; also called hFcgRIIb
T3 sequence (looked up): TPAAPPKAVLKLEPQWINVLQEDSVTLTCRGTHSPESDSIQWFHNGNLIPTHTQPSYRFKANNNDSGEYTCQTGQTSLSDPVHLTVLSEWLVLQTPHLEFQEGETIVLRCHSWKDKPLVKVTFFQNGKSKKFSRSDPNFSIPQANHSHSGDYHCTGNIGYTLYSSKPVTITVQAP

B1: A375-SCF056a/B167-Lamlib (antibody, human IgG1, lambda)
heavy: EVQLVESGGGLVKPGGSLRLSCAASGFTFSTFTMNWVRQAPGKGLEWVSSISSKSTYIEYADSFKVRFTISRDNAKNSLYLQMNSLRAEDTAVYYCARYGAKNFLNWVFDYWGQGTLVTVSSASTKGPSVFPLAPSSKSTSGGTAALGCLVKDYFPEPVTVSWNSGALTSGVHTFPAVLQSSGLYSLSSVVTVPSSSLGTQTYICNVNHKPSNTKVDKRVEPKSCDKTHTCPPCPAPELLNGPSVFLFPPKPKDTLMISRTPEVTCVVVDVSDEDPEVKFNWYVDGVEVHNAKTKPREEQYNSTYRVVSVLTVLHRDWLNGKEYKCKVSNKALPKPIEKTISKAKGQPREPQVYTLPPSREEMTKNQVSLTCLVKGFYPSDIAVEWESNGQPENNYKTTPPVLDSDGSFFLYSKLTVDKSRWQQGNVFSCSVMHEALHNHYTQKSLSLSP
light: QSALTQPPSASGSPGQTVTISCTGTRYDVGYYEYVSWYQQHPGKAPKLMIYETSKRLSGVPDRFSGSKSGNTASLTVSGLQAEDEADYYCSSYRYEHQVSFGGGTKLTVLGQPKAAPSVTLFPPSSEELQANKATLVCLISDFYPGAVTVAWKADSSPVKAGVETTTPSKQSNNKYAASSYLSLTPEQWKSHRSYSCQVTHEGSTVEKTVAPTECS
notes: copies: 2 + 2
B2: A375-TT14/B167-Lamlib (antibody, human IgG1, lambda)
heavy: B1 heavy with R219K, L239Y, N241G, P243D, T255V, V269I, D273H, T312P, R316Q
light: B1 light
notes: copies: 2 + 2
B3: A375-SCF057a/B167-Lamlib (antibody, human IgG1, lambda)
heavy: B1 heavy with P348R
light: B1 light
B4: A375-SCF059aPh/B167-Lamlib (antibody, human IgG1, lambda)
heavy: B1 heavy with L240W, D418K
light: B1 light
notes: copies: 2 + 2
B5: A375-SCF057aPh/B167-Lamlib (antibody, human IgG1, lambda)
heavy: B1 heavy with L240W, P348R
light: B1 light
B6: A375-SCF056aPh/B167-Lamlib (antibody, human IgG1, lambda)
heavy: B1 heavy with L240W
light: B1 light
notes: copies: 2 + 2
B7: A375-SCF060a/B167-Lamlib (antibody, human IgG1, lambda)
heavy: B1 heavy with L240W, Q300L, K331T
light: B1 light
notes: copies: 2 + 2
B8: A375-SCF059a/B167-Lamlib (antibody, human IgG1, lambda)
heavy: B1 heavy with D418K
light: B1 light
notes: copies: 2 + 2

target: T4, human FcgRIa extracellular domain (human, UniProt P12314 16-292); test: SPR 25C
T4 construct: extracellular domain; also called hFcgRIa
T4 sequence (P12314 16-292): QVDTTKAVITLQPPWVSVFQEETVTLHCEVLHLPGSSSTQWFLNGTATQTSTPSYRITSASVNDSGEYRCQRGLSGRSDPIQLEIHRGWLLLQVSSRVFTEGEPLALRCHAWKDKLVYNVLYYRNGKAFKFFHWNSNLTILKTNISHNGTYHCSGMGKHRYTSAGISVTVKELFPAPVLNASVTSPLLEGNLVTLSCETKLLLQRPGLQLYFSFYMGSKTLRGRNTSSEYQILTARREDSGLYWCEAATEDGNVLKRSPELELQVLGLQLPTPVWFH

| Binder | binding per 1RU antibody | relative binding (A375-G1T3/B167-Lamlib=1) |
| --- | --- | --- |
| B1 | 0.0395 RU | 0.49 |
| B2 | 0.0045 RU | 0.05 |
| B3 | 0.0405 RU | 0.5 |
| B4 | 0.0089 RU | 0.11 |
| B5 | 0.0021 RU | 0.03 |
| B6 | 0.0019 RU | 0.02 |
| B7 | 0.0021 RU | 0.03 |
| B8 | 0.038 RU | 0.47 |

target: T1, human FcgRIIa type H extracellular …; test: SPR 25C

| Binder | binding per 1RU antibody | relative binding (A375-G1T3/B167-Lamlib=1) |
| --- | --- | --- |
| B1 | 0.0529 RU | 0.93 |
| B2 | 0.0042 RU | 0.07 |
| B3 | 0.0525 RU | 0.93 |
| B4 | 0.0332 RU | 0.59 |
| B5 | 0.0365 RU | 0.64 |
| B6 | 0.0314 RU | 0.55 |
| B7 | 0.0463 RU | 0.82 |
| B8 | 0.0502 RU | 0.88 |

target: T2, human FcgRIIa type R extracellular …; test: SPR 25C

| Binder | binding per 1RU antibody | relative binding (A375-G1T3/B167-Lamlib=1) |
| --- | --- | --- |
| B1 | 0.0331 RU | 0.71 |
| B2 | 0.0067 RU | 0.14 |
| B3 | 0.0367 RU | 0.79 |
| B4 | 0.0319 RU | 0.69 |
| B5 | 0.0364 RU | 0.79 |
| B6 | 0.0299 RU | 0.64 |
| B7 | 0.0459 RU | 0.99 |
| B8 | 0.0319 RU | 0.69 |

target: T3, human FcgRIIb extracellular domain; test: SPR 25C

| Binder | binding per 1RU antibody | relative binding (A375-G1T3/B167-Lamlib=1) |
| --- | --- | --- |
| B1 | 0.0399 RU | 3.64 |
| B2 | 0.0805 RU | 7.34 |
| B3 | 0.0412 RU | 3.76 |
| B4 | 0.0291 RU | 2.66 |
| B5 | 0.0345 RU | 3.15 |
| B6 | 0.0292 RU | 2.67 |
| B7 | 0.0472 RU | 4.31 |
| B8 | 0.0358 RU | 3.27 |

target: T5, human FcgRIIIa F158 extracellular domain (human, UniProt P08637 17-208); test: SPR 25C
T5 construct: extracellular domain; also called hFcgRIIIaF
T5 sequence (P08637 17-208): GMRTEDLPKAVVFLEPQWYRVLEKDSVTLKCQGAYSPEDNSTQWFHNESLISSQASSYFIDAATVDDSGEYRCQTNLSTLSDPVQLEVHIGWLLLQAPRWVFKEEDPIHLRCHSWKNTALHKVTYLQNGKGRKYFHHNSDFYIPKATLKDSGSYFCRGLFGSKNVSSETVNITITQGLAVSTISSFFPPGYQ

| Binder | binding per 1RU antibody | relative binding (A375-G1T3/B167-Lamlib=1) |
| --- | --- | --- |
| B1 | 0.0011 RU | 0.05 |
| B2 | 0 RU | 0 |
| B3 | 0.0013 RU | 0.06 |
| B4 | 0.0003 RU | 0.01 |
| B5 | -0.0003 RU | -0.02 |
| B6 | 0.001 RU | 0.05 |
| B7 | 0.0011 RU | 0.05 |
| B8 | 0.001 RU | 0.05 |

target: T6, human FcgRIIIa V158 extracellular domain (human, UniProt P08637 17-208); test: SPR 25C
T6 construct: extracellular domain; also called hFcgRIIIaV
T6 sequence (P08637 17-208 F176V): as the sequence (P08637 17-208) above, with F160V counted along it

| Binder | binding per 1RU antibody | relative binding (A375-G1T3/B167-Lamlib=1) |
| --- | --- | --- |
| B1 | 0.0023 RU | 0.03 |
| B2 | 0.0003 RU | 0 |
| B3 | 0.0025 RU | 0.04 |
| B4 | 0.0028 RU | 0.04 |
| B5 | 0.0005 RU | 0.01 |
| B6 | 0.001 RU | 0.01 |
| B7 | 0.0008 RU | 0.01 |
| B8 | 0.0021 RU | 0.03 |

target: human FcRn (human, UniProt P55899 24-290; P61769 21-119); test: SPR 25C pH 6.0, steady state
Procedure, shortened: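 Antibody (~400 RU) captured on anti-Fab-lambda sensor chip, human FcRn injected as analyte.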

Chain of human FcRn (P55899 24-290 limits assumed, chain 1 of 2): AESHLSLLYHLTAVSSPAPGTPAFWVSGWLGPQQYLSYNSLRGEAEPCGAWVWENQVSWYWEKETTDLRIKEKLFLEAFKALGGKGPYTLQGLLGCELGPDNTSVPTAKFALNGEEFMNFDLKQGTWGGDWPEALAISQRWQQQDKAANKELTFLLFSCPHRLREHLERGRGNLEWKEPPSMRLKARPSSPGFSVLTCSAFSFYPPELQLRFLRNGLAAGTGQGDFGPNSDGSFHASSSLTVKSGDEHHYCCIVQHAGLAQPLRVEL
Chain of human FcRn (P61769 21-119 limits assumed, chain 2 of 2): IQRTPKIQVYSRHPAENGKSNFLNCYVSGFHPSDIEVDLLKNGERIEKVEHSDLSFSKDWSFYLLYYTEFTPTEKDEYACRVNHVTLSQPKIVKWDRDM

| Binder | Kd |
| --- | --- |
| B1 | 956 nM |
| B2 | 1770 nM |
| B3 | 928 nM |
| B4 | 1050 nM |
| B5 | 909 nM |
| B6 | 1000 nM |
| B7 | 1010 nM |
| B8 | 1030 nM |
